Results reported in publication PMC10104900 (The Journal of Clinical Investigation, 2023).
Where two headings read alike, the source gives them in different places.

What was measured:
[1] = target: recombinant FL spike WT-6P (SARS-CoV-2 WT (Wuhan-Hu-1), UniProt P0DTC2, stabilised, biotin (EZ-Link Sulfo-NHS-Biotin) in the BLI experiments)
spike BA.1-6P = spike BA.1-6P (SARS-CoV-2, Omicron BA.1, strain)
SARS-CoV-2 WT RBD [2] = target: T1, SARS-CoV-2 WT RBD (SARS-CoV-2 WT (Wuhan-Hu-1), UniProt P0DTC2)
[3] = target: recombinant FL spike WT-2P (SARS-CoV-2 WT (Wuhan-Hu-1), stabilised, biotin (EZ-Link Sulfo-NHS-Biotin) in the BLI experiments)
SARS-CoV-2 WT RBD [4] = target: T1, SARS-CoV-2 WT RBD; assay: ELISA; details: both partners purified

Binder	binding result [1]	binding result (spike BA.1-6P)	binding result (SARS-CoV-2 WT RBD [2])	binding result [3]	binding result (SARS-CoV-2 WT RBD [4])
S451-1140 (antibody, V domains shown) VH: EVQLVESGGGLVPPGGSLRLSCAASGFIFSNYAMTWVRQAPGKGLEWVSAISGGGGSTDYADSVKGRFTISRDNSKNTLYLQMNSLRAEDTAVYYCAKDLFGSGWSLFDNWGQGTLVTVS VL: not shown	binds	binds	binds	binds	
LY-CoV555 (Eli Lilly) (antibody, V domains shown) VH: QVQLVQSGAEVKKPGSSVKVSCKASGGTFSNYAISWVRQAPGQGLEWMGRIIPILGIANYAQKFQGRVTITADKSTSTAYMELSSLRSEDTAVYYCARGYYEARHYYYYYAMDVWGQGTAVTVSS VL: not shown					binds
S626-161 (antibody, V domains shown) VH: QLQLQESGPGLVKPSEALSLTCTVSGGSISTSNYYWGWIRQPPGKGLEWIGSIYYRGGTHYNPSLKTRVTISVDTSKNQFSLKLSSVTAADTAVYYCARHTYFYDIVGAAVWEPFDIWGQGTMVTVSS VL: not shown	binds	binds	binds	binds	
S728-1157 IgG (antibody, V domains shown, copies: 2 + 2) VH: EVQLVESGGGLVQPGGSLRLSCAASGLLVSRNYMNWVRQAPGKGLEWVSIIYSGGSTFYADSVEGRFTISRDESKNTLYLQMNSLRTDDTAVYYCARDLSDYGGIDCWGQGTLVTVSS VL: YELTQPLSVSMALGQTARISCGGDNVGSQNVHWYQQRPGQAPVLVIYRDSNRPSGIPERFSGSKSGNTATLTISRAQAGDEADYYCQVWDSSTVAFGGGTKLTVL					binds
REGN10933 (Regeneron) (antibody, V domains shown, source: HEK293T, transiently cotransfected, purified (protein A-agarose beads); copies: 2 + 2) VH: QVQLVESGGGLVKPGGSLRLSCAASGFTFSDYYMSWIRQAPGKGLEWVSYITYSGSTIYYADSVKGRFTISRDNAKSSLYLQMNSLRAEDTAVYYCARDRGTTMVPFDYWGQGTLVTVSS VL: DIQMTQSPSSLSASVGDRVTITCQASQDITNYLNWYQQKPGKAPKLLIYAASNLETGVPSRFSGSGSGTDFTFTISGLQPEDIATYYCQQYDNLPLTFGGGTKVEIK					binds
